In article PMC6265484, “Homodimerization regulates an endothelial specific signature of the SOX18 transcription factor” (Nucleic Acids Research, 2018):

Tests used:
Assay in all cases: single-molecule two-colour coincidence fluorescence spectroscopy; GFP- and Cherry-tagged proteins made in LTE, diluted to about 100 pM, confocal detection with 488 and 561 nm lasers, room temperature; coincidence ratio C = mCherry/(GFP + mCherry)
[1] = target: T1, RXRA (UniProt P19793 1-462); conditions: partners not purified
T1 sequence (looked up): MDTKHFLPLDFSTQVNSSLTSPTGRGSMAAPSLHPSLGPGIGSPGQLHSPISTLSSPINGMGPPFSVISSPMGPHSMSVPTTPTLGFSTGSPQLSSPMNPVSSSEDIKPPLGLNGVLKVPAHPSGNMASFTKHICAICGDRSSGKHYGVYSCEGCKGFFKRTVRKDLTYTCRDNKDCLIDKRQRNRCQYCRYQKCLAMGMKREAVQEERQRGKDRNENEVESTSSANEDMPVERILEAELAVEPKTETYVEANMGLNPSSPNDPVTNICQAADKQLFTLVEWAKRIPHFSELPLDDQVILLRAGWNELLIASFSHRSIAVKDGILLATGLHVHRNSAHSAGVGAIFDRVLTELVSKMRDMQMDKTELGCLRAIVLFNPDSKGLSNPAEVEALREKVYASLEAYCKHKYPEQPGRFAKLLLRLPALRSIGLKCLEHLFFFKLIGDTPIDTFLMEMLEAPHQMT

[2] = target: human MEF2C (human, UniProt Q06413 1-473); conditions: partners not purified
[3] = target: the molecule itself
[4] = target: human RBPJ (human, UniProt Q06330 1-500); conditions: partners not purified
Chain of human RBPJ (Q06330 whole entry): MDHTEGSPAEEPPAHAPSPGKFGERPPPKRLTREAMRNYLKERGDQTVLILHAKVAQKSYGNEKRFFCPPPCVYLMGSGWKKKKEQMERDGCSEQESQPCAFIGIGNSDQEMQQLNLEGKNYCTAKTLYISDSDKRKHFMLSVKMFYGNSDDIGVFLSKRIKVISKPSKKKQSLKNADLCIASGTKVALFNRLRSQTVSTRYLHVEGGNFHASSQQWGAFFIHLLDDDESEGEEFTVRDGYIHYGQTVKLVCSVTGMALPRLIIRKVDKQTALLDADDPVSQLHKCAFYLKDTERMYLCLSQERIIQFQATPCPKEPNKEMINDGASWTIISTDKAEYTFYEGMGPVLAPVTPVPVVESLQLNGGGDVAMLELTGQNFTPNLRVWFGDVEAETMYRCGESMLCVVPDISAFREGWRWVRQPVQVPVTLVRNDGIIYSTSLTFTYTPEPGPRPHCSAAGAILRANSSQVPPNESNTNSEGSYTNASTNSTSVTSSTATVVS

Chain of human MEF2C (Q06413 whole entry): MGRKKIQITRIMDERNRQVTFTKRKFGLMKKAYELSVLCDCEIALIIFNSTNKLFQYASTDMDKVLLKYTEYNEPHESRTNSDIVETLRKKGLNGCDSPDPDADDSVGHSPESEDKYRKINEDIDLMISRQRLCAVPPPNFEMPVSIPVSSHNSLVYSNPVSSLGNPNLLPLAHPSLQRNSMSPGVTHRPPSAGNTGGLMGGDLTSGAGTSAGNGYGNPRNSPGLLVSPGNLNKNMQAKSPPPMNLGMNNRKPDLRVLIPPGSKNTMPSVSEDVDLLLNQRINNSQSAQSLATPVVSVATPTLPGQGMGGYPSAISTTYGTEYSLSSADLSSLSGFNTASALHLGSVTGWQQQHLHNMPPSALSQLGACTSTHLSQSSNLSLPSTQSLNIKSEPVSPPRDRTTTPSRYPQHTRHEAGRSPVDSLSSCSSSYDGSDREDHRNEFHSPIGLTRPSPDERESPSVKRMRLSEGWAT

B1: full-length human SOX18 (natural protein, UniProt P35713 1-384, looked up)
chain: MQRSPPGYGAQDDPPARRDCAWAPGHGAAADTRGLAAGPAALAAPAAPASPPSPQRSPPRSPEPGRYGLSPAGRGERQAADESRIRRPMNAFMVWAKDERKRLAQQNPDLHNAVLSKMLGKAWKELNAAEKRPFVEEAERLRVQHLRDHPNYKYRPRRKKQARKARRLEPGLLLPGLAPPQPPPEPFPAASGSARAFRELPPLGAEFDGLGLPTPERSPLDGLEPGEAAFFPPPAAPEDCALRPFRAPYAPTELSRDPGGCYGAPLAEALRTAPPAAPLAGLYYGTLGTPGPYPGPLSPPPEAPPLESAEPLGPAADLWADVDLTEFDQYLNCSRTRPDAPGLPYHVALAKLGPRAMSCPEESSLISALSDASSAVYYSACISG
stoichiometry N [1]: 1
stoichiometry N [2]: 2
stoichiometry N [3]: 2
stoichiometry N [4]: 2
